Measurements published in patent US20250313626A1 (HARBOUR BIOMED SHANGHAI, published 2025).

How the values were obtained:
[1] = target: T1, human CD200R1 isoform a on CHOK1 cells (CHOK1/hCD200R1a) (human, UniProt Q8TD46 25-348); experiment: flow cytometry, CHOK1/hCD200R1a cells (FITC-Mean); table beside the curves, head without unit, x axis Log [Ab] (nM)
T1 construct: also called CHOK1/CD200R1a
T1 sequence: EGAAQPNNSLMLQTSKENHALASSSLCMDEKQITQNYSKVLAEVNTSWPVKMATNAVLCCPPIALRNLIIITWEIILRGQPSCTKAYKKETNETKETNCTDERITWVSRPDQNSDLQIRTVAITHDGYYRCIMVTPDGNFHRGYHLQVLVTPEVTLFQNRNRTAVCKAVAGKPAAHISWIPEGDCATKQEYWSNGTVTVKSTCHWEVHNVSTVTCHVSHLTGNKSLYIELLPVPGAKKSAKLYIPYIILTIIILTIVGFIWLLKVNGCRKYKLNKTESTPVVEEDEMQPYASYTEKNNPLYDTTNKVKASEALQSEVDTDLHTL

[2] = target: T1, human CD200R1 isoform a on CHOK1 cells …; experiment: flow cytometry, CHOK1/hCD200R1a cells (FITC-Mean); table beside the curves
Protocol: This example is intended to investigate the in vitro binding activity of human anti-CD200R1 monoclonal antibodies to human/Cynomolgus macaques CD200R1a expressed on the surface of cells. The anti-CD200R1 antibodies were produced as described in Example 3.4 and the binding experiments at the cell level were performed using CHOK1/hCD200R1a and CHOK1-cynoCD200R1a.
Briefly, CHOK1/hCD200R1a cells and CHOK1-cynoCD200R1a cells were digested, and collected, and then were resuspended in PBS containing 2% BSA, respectively. The cell density was adjusted to 1×10⁶ cells/mL. The cells were seeded in a 96-well V-bottom plate (Corning, #3894) at 100 μL/well, followed by the addition of test antibodies and reference antibodies in a series diluted concentration, each at 100 μL/well. The cells were incubated away from light at 4° C. for 1 h. Thereafter, the cells in each well were rinsed twice with 100 μL of pre-cooled PBS containing 2% BSA, and centrifuged at 500 g at 4° C. for 5 min, and then the supernatant was discarded. 100 μL of fluorescent secondary antibody (Alexa Fluor 488-conjugated AffiniPure Goat Anti-Human IgG, Fcγ Fragment Specific, Jackson, #109-545-098, diluted in a 1:1000 ratio) was added in each well, and the plate was incubated away from light at 4° C. for 1 h. The cells in each well were rinsed twice with 100 μL of pre-cooled PBS containing 2% BSA, and centrifuged at 500 g at 4° C. for 5 min, and then the supernatant was discarded. Finally, the cells in each well were resuspended in 200 μL of pre-cooled PBS containing 2% BSA, and the fluorescence signal values were read using a BD CantoII flow cytometer.

[3] = target: T1, human CD200R1 isoform a on CHOK1 cells …; experiment: flow cytometry blocking assay: biotin-labelled human CD200 binding to CHOK1/hCD200R1a cells; y axis Inhibition %
Protocol: (§1) In brief, CHOK1/hCD200R1a cells were digested and resuspended in 2% BSA in PBS. […] The cells were placed at 4° C. and incubated for 1 hour in the dark. […] 100 μL/well of pre-cooled PBS containing 2% BSA was added to rinse the cells twice, centrifugation was performed at 500 g, 4° C. for 5 minutes, and the supernatant was discarded. Fluorescent secondary antibody (PE Streptavidin, BD, Cat #: 554061, 1:200) was added at 100 μL/well, and incubation was performed at 4° C. for 30 minutes in the dark. The cells were washed twice with 200 μL/well of pre-cooled PBS, and were centrifuged at 500 g, 4° C. for 5 minutes, and the supernatant was discarded. Finally, 200 μL/well of pre-cooled PBS was used to resuspend the cells, and the fluorescence signal values were read using ACEA Novocyte 3000 flow cytometer. IC50 values were calculated.

[4] = target: T1, human CD200R1 isoform a on CHOK1 cells …; experiment: flow cytometry blocking assay: antibody titrated against biotin-labelled human CD200 binding to CHOK1/hCD200R1a cells; head prints EC50 without unit, x axis Log [Ab] (nM), y axis Inhibition %
Protocol: as §1

[5] = target: T2, human CD200R1a protein (soluble recombinant) (human, UniProt Q8TD46 29-265); experiment: BLI in-tandem competition on His-captured human CD200R1a; row = 1st Ab (400 nM); competitor (2nd Ab) PR007221
T2 construct: Soluble protein used in BLI; also called human CD200R1 isoform a; not shown: His tag implied by capture on anti-Penta-HIS biosensors
T2 sequence: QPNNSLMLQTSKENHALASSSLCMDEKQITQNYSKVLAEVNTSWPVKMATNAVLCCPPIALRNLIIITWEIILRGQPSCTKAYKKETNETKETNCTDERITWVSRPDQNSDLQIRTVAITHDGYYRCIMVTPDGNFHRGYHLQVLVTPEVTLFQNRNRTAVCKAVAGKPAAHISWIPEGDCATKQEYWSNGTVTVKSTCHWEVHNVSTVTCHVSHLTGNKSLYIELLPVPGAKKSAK
Protocol: (§2) To determine if the anti-CD200R1 antibodies bind to human CD200R1a on different or approximate binding epitopes, epitope competition experiments for the anti-CD200R1 antibodies were performed by the ForteBlio Octet® RED96e platform. […] The in-tandem competition assay format was applied, and it contained two association steps. Firstly, the antigen-loaded biosensors bound to each antibody (i.e., First antibody, 1st Ab) at a saturating concentration of 400 nM for 300 seconds to reach equilibrium and then secondly bound to the competing antibodies (i.e., Second antibody, 2nd Ab) of 400 nM for 300 seconds. The second binding signals are recorded as the 100% signal of each antibody when the first antibodies are replaced by kinetic buffer. All the binding data were analyzed using ForteBlio Data Analysis 11.0 software. The inhibition rate was calculated by the following formula: […]

[6] = target: T2, human CD200R1a protein (soluble …); experiment: BLI in-tandem competition on His-captured human CD200R1a; row = 1st Ab (400 nM); competitor (2nd Ab) PR007223
Protocol: as §2

[7] = target: T2, human CD200R1a protein (soluble …); experiment: BLI in-tandem competition on His-captured human CD200R1a; row = 1st Ab (400 nM); competitor (2nd Ab) PR007973
Protocol: as §2

| Binder | EC50 [1] | MFI(Max) [2] | Blocking(Max) [3] | EC50 [4] | Inhibition ratio (%) [5] | Inhibition ratio (%) [6] | Inhibition ratio (%) [7] |
| --- | --- | --- | --- | --- | --- | --- | --- |
| PR006480 (antibody, human IgG1, kappa, L234A L235A, also called PR6480) heavy: not shown light: DIQMTQSPPSLSASVGDRVTITCRASQSISSYLNWFQQKAGKAPKLLISATSNLQSGVPSRFSGSGSGTDFTLTISSLQPEDLATYYCQQSYSSPYTFGQGTKVEIKRTVAAPSVFIFPPSDEQLKSGTASVVCLLNNFYPREAKVQWKVDNALQSGNSQESVTEQDSKDSTYSLSSTLTLSKADYEKHKVYACEVTHQGLSSPVTKSFNRGEC | 0.124 nM | 8890 | 61% | 0.164 nM |  |  |  |
| PR007223 (antibody, human IgG1, kappa, PTM variant of PR006895 (human IgG1)) heavy: not shown light: DIQLTQSPPSLSASVGDRVTITCRASQSISSYLNWFQQKAGKAPKLLISATSNLQSGVPSRFSGSGSGTDFTLTISSLQPEDLATYYCQQTYSSPYTFGQGTKVEIKRTVAAPSVFIFPPSDEQLKSGTASVVCLLNNFYPREAKVQWKVDNALQSGNSQESVTEQDSKDSTYSLSSTLTLSKADYEKHKVYACEVTHQGLSSPVTKSFNRGEC | 0.133 nM | 9890 | 88% | 0.122 nM | 101% | 91.8% | 99.6% |
| PR007221 (antibody, human IgG1, kappa, PTM variant of PR006895 (human IgG1)) heavy: not shown light: DIQLTQSPPSLSASVGDRVTITCRASQSISSYLNWFQQKAGKAPKLLISATSNLQSGVPSRFSGSGSGTDFTLTISSLQPEDLATYYCQQTLSSPYTFGQGTKVEIKRTVAAPSVFIFPPSDEQLKSGTASVVCLLNNFYPREAKVQWKVDNALQSGNSQESVTEQDSKDSTYSLSSTLTLSKADYEKHKVYACEVTHQGLSSPVTKSFNRGEC | 0.172 nM | 11100 | 80.4% | 0.194 nM | 100% | 89% | 95.6% |
| PR002906 (antibody, V domains shown, also called recombinant IgG1 antibody of huDX182) VH: QVQLQESGPGLVKPSETLSLTCTVSGYTITSGYDWSWIRQPPGKGLEWIGYINYGGSTNYKPSLGSRVTISVDTSKNQFSLKLSSVTAADTAVYYCARYNEYKSYIYDWYFDFWGQGTLVTVSS VL: DIQMTQSPSSLSASVGDRVTITCKASKNIRSYLAWYQQKPGKAPKLLIYSGSTLHSGVPSRFSGSGSGTDFTLTISSLQPEDFATYYCQQHHEYPLTFGQGTKVEIKR | 0.292 nM | 11100 | 95.4% | 0.479 nM |  |  |  |
| PR007973 (antibody, human IgG1, kappa, V domains shown, PTM variant of PR006839 (human IgG1)) VH: QVQLVESGGGVVQPGRSLRLSCAASGFTFSSYGFHWVRQAPGKGLEWLGIIWSDASNKYYADSVKGRFTISRDNSKNTLYLQMNSLRAEDTAVYYCARDRIVGEGFDYWGQGTLVTVSS VL: not shown |  |  |  |  | 100% | 91.7% | 103% |
